The data set is described as follows: label from the status in PepcDB records.
In the case of “MIYDLHSHSTASDGMLTPTELILRAVEQKVDVLALTDHDTLAGIQEAKIAAESQPIQLISGVEISALWQNKNIHLTALDIDEHHPALIELLQHHAVLREQRAVEIGEKLAKAGIPNAYHGAKMLANGEVTRAHYARFLVQQDYVRNIEHAFKKYLGTGKIAYVKPQWSSISHVIDVTHQAGGVICLAHPLRYKMTARWLRALIEHFKQAGGDGIEVASCGQRPDQRQLIARWASEFDLYASVGSDFHYPTGWIELGKSLTLPTTCKPIWQLFTTQ”, the protein production entry is “failed”.

In the case of “MDTAVNESLSISYNLEQFLIVLSVSLSIATLSKTVPILRKIPYTLLLVIVGMALAFVDVKLINLSPELIMEIFLPPLLFEAAWNLQWRNLKENWFPITLFATLGVVICVVGIAFPLSYWGGMELAIAFLAAAALSATDPVSVIALFKELGASKKLNTLMEGESLFNDGVAVVVFLILVGIPLGTSTFDLSVTLARFVTVIGIGVGCGLVIGFSLSLLTQRFDLPFVEQSLTLVSAYGAYILAENLGGSGVIGVVVVGMVLGNYGSRIGMNPRTRLIVSIFWEFVAFFVNSIIFLLIGDQIGLSSLSDHLNLILIAIAAVVVTRLVSVFGLSLISNKVSDQISSTHITLQEQTVLWWGGLRGSVAIAVALSVPQAIAERQAIIDIVFGVVLFTLLVQGLTTQFVLKGLDLIGDQPQRLEYAELVSRQIALRRVLAELEKTDEFPDINPERLRYKQELVQGQLQSVTDKLKLLLQEYPLLQEVANKKFDQTVLDIEAETYADLIRMGRLEENIMPLLVTLEGENVAEPS”, the protein production result is “failed”.

“SYASETASTQGLPALELDPEELLAQVQLLRAAVEGSRRESRELVGALERERRLNLEMRQRFERQFAAVSDQLLQLNHLQKESEALLQSLQEQLNEAELQKNAAQRELACVQRQLSLARAEADAGKRVLTTIAEKEALLRKTSQANADLQQIVMHLQAELRNSELQPSTSNASEERLHEAEIPSLADRDAYQTLQQTIEKLSAERDMWYHECARAKEESLRLQQDAERLRGLLDEQQRVHTTTQTLLQDRHLLMRRIIAALAEKYLMEKLPNQHYTQEIDSSPFQARGGTSVQEAHKHERLRRARSF”: the protein production entry is on record as “not failed”.

On to “MVSPKKESKSMKILKNLALPIAMALGVLAWPILSPLSFLIPYMIFLMLFFTFLKISPRDMHFSRLHLLLALIQITLAIGGFFAFRLLDPIVAEGVMICFICPAATASSVIIGMLGGNIAFGATYVLLTHMGVAVLGPLLFSSLSTAHADMPFWSSVIHILWGVLPLVVVPLLAAWIIRFTSPRTHARLLRIPQMAFWLWVTSLAIIMAKTTGYVMAQGSDSIRLELLLALGGLLSCLLQFGLGKWLSKRYLKESITAGQALGQKNTSLAIWMSLTYLNPIASIAPASYVVWQNSLNSIQIWLYDKRKNKTDRQ”, for which the protein production entry is on record as “failed”.

As for “MGEKPGTRVFKKSSPNCKLTVYLGKRDFVDHLDKVDPVDGVVLVDPDYLKDRKVFVTLTCAFRYGREDLDVLGLSFRKDLFIATYQAFPPVPNPPRPPTRLQDRLLRKLGQHAHPFFFTIPQNLPCSVTLQPGPEDTGKACGVDFEIRAFCAKSLEEKSHKRNSVRLVIRKVQFAPEKPGP”, the protein production entry is recorded as “failed”.

With “MVKKNVGLRFLSILILMALLIGNVQSFNVAAAEGVIVNGTQFKDTSGNVIHAHGGGMLKHGDYYYWYGEYRDDSNLFLGVSCYRSKDLVNWEYRGEVLSRNSAPELNHCNIERPKVMYNASTGEFVMWMHWENGINYGQARAAVAYSKTPDGKFTYIRSFRPMQDTGVMDHGLPGYMSRDCNVFVDTDGKGYFISAANENMDLHLYELTPDYKNIASLKAKLFVGQQREAPCLIKRNGYYYLITSGCTGWNPNQAKYAYSKDLASGWSQLYNLGNSTTYRSQPTFIIPVQGSSGTSYLYMGDRWAGAWGGKVNDSQYVWLPLNFISDTTLELPYYDSVKIDASSGIISEYIPDTTRYKLVNKNSGKVLDVLDGSVDNAAQIVQWTDNGSLSQQWYLVDVGGGYKKIVNVKSGRALDVKDESKEDGGVLIQYTSNGGYNQHWKFTDIGDGYYKISSRHCGKLIDVRKWSTEDGGIIQQWSDAGGTNQHWKLVLVSSPEPSPSPSPQVVKGDVNGDLKVNSTDFSMLRRYLLKTIDNFPTENGKQAADLNGDGRINSSDLTMLKRYLLMEVDL”, the protein production entry is “failed”.

Consider “MAFITGAARGQGRSHAVRLAAEGADIIACDICAPVSASVTYAPASPEDLDETARLVEDQGRKALTRVLDVRDDAALRELVADGMEQFGRLDVVVANAGVLSWGRVWELTDEQWDTVIGVNLTGTWRTLRATVPAMIEAGNGGSIVVVSSSAGLKATPGNGHYSASKHGLTALTNTLAIELGEYGIRVNSIHPYSVETPMIEPEAMMEIFARHPSFVHSFPPMPVQPNGFMTADEVADVVAWLAGDGSGTLTGTQIPVDKGALKY”, for which the protein production result was “failed”.

For the sequence “MKHEAIGHDTIAKFLLTSGSTGNPKAVINTQRMICANQVMIREAMAFLKDEPPVIVDWLPWNHTFGGNHNIGLTLFNGGSMYIDDGKPTPAGIASTIRNLREIAPTVYFNVPKGYESLLPVLREDQQLRKLFFSRLHAMFFSGASLAAHVWNGLDEVAVAETGARVPMLTGLGATETAPFFMSVTPQTSRSGHVGLEHHHHHH”, the protein production entry is “failed”.

As to “MLKKLFAPPQKRERLSAEEIKHKYPRYRVQVLISIFVGYMGYYFVRNTTSILSGILNMSATEIGIITCASYIAYGLSKFISGLISDESNSKIFLPVGLFLTGLVNVLIGVIPSVITSIWLFTIMYLINGWLQGMGYPPGARTLVYWYDNKERIKYATIWNLSHNFGGAIAPILTGVGLALAGNDSLNQARAAYWFPGVVACLLAVLVYFLQEDTPESIGLPPIEEYHKEQYTNVVDSSDILEEPEVLGMGEIIKKYILPNTKLMWASLYSIFVYILRYGIVSWTPKFLATSVQDGGKGITATAGMGGFSLFEIGGIIGMLTAGYLSAKVFKNSKPLTNVAFLVVAILLLAAYWFIPAGPQYMALDFIILLGLGASIYGPVMMVGLYAMELVPKAAAGAASGLTGTFSYVGGATIATLAIGIIIDHFGWGVAFIIFGISGFAAIVCTLLSRDKSLEYW”, the protein production result is on record as “failed”.

As for “MDDWRRFAQQMASLARDLLSQESLHDTLDRITASATELVEDCDAAGILILRGTKVQSLAPTEQVVIDSDALQGRVGEGPCFDAARSGTGERQFRIADFTDEAQRWPKYVPEARKLNLGSMMGFLLFTEDEDLGALNMYSYRPGAFTEADETAGWLLASHAAVAFSSARTHAQMQEAIGTRHIIGEAMGILMGRHRMSEDQAFAALRRYSQDHNVKLRNVAAQVCERGGLPEPTDKR”, the protein production entry is “failed”.

As to “YRQSQSRAARLRLLVDTGQELIQLPPEAMRKCVLQRACAFVAMDHGLLLEWGADNGVQTTARHGSKERLSTLETTADPLAIGPQWLERPGTHLPCVLLLPLRGADEGSFGTLVLANSVAISAPDGEDIESLQLLATLLAAHLENNRLLEALVARDRT”, the protein production entry is reported as “not failed”.

For the sequence “MSYLVVTIKVILITGMPGSGKSEFAKLLKERGAKVIVMSDVVRKRYSIEAKPGERLMDFAKRLREIYGDGVVARLCVEELGTSNHDLVVFDGVRSLAEVEEFKRLLGDSVYIVAVHSPPKIRYKRMIERLRSDDSKEISELIRRDREELKLGIGEVIAMADYIITNDSNYEEFKRRCEEVTDRVLKNG”, the protein production entry was “failed”.

Consider “IPVFNITSNRGRLLQQISVGDIWGVGRQWANKLISRGIHTAYDLAMTNPHLLKKCFNAVLMRTAMELQGIACGG”, for which the protein production result was “failed”.

Regarding “VSEEEIRMLVAESHEAGVIDAHERDMMNRVMRLGDRTADSLMTPRNRIAWLDANAEPERNLHVMREHEFSRYPVYRGSDQDIAGVLEVKSLVTRMDGHGAQLFQNLRDTLFVSESTHAMKLLEIFREEQQSMALVVDEYGEIRGLVTISDLMGAVVGRLQSVENTDD”, the protein production entry is “failed”.

As for “MSASRILTAFGLTGALVTAGVAQAGIVYIPEGSADSVLMVESETGQPVGRISGVEAVHGLAGAPGTPYLVAGSYSEIDPESAAQTARPEGVSQADHNAHHAKPAKAAMPTDKGLSLVSVIDAGTGEVVRRIEVPGAVHHTAVSPDGRWAMATHPGGDGVSLIDLSTLEYAGFIATGPMPNYVSFSPDNSRAYVSNAGNGTLSELDLDRRILSRNLLAGEGPEHFALSRDGATVFVADAEAGRVLRLDIASGAETASYGFGAELHGLDLSEREDTLFVAVKGADQVAAVDLASGAVRLQELAPAPYHLTVADGGETLFVSSREASMVWAVDQVSLRVTAEIGIEGEGHQMVVLP”, the protein production result was “failed”.

Turning to “MFRSKSCREETRSSSITNKYHCFSHGEKSESEPTNQQPPVMMRSYSTSTYNAYQNPTIVRDDSNNKSKRSNKVKKKGFKGLCEAEIQRKKRVASYNVYGVEGRVKGSMKKSFKWFKETCSNAVYGLW”, the protein production entry is recorded as “failed”.

“MQGADADTVADALASDDALPGAGGFAGELDGTLVRDVLGRYPLFVERAVSDEARLDPGQWSHDPTALADPRSFPAGHIRNESGTQQRWSLPSLDPFGDRETAIETVGETVETSIDAVDTDSLAIAFSGGVDSALLAARLDAPLYVAGFPDSHDIEAARSAAELLGTEVRVVELTHDAIERAVPEIARATARTNAMDVQIALPLYLVAERVAGDGFDRLALGQGADELFGGYAKVAKAPEDPRVEADTVRGAQREVIASLPDQLERDVLALRAAGVEPVTPLLHDRVIGAALRLDGDLLVDGETRKVALRAAARESLPDEIADRDKKAAQYGSLAARELDRLARQAGYKRRMDDHVTQYVESLVE”: the protein production entry is listed as “failed”.

On to “MPQGCDRPSHGLRLADEQGRCQIKFVASDSPAEQAGLMIGDEIVALNGLRVSADNFSRRLATYQAGQVLELTIFHDDQLQSFSLTLAEPQPQSYNLRPAATVTSLEHHHHHH”, for which the protein production result is “failed”.

Turning to “MKNIIACIDGSPTTFATCEASAWVASKINAPLILLHALDKTMRPVVSEFSGQIGLGSQEELLNELAELDEARSKVALKHGKKLLEEATEWVIKKGLTNVEQLQRHGSLLESLIDLENQLRVLVIGKLGEDQSSNKTIGSQLESIIRSIKSHTLVVT”, the protein production entry is “failed”.

Turning to “MGAVTDDEVIRKRLLIDGDGAGDDRRINLLVKSFIKWCNSGSQEEGYSQYQRMLSTLSQCEFSMGKTLLVYDMNLREMENYEKIYKEIECSIAGAHEKIAECKKQILQAKRIRKNRQEYDALAKVIQHHPDRHETLKELEALGKELEHLSHIKESVEDKLELRRKQFHVLLSTIHELQQTLENDEKLSEVEEAQEASMETDPKP”, the protein production result is reported as “failed”.

“MNNIILMPILIPFLGAITLMLLPKRVIVQRVFALIFSGILVVATIGLVFYIRENGITTVNIGNWAAPFGITMVGDMLAVLLTATTSIVLFCVILYSFYTIGKPREKFLYYPAILFMIVGVNGSFLTGDIFNMFVFFEVMLMASYVLLVIGGTQVQLKATIKYLLINVVGSGFFVVAIALLYSMIGTLNMADISQKITDLNGANTGMISIVAVLFLFVFGLKAGLFPLYFWLPGSYFAPPIPVLALFGGLLTKVGVYAIIRTYTLFFSSLTDFVVPLLGILAIVTIILGVIGAISYYDMKTIVIYNIMIAIGVILFSVSIMTRESMTGAVFYLIHDMIIKAALFLIVGIVMAITGYSSVKKFSGLMSVKPSLGWIFFIATLGLAGIPPLSGFIGKLLIVEGAFSAGQMVGGIIILLSSLFVLMSLIKVFTKGFWGEKKGVFNLQIPYKKMLVPVVILLAISIGYGVFSNAIYPFIEQAVDPLVDPSVYIHAVIKE”: the protein production result was “failed”.

With “MDATMVFKRLLGSLGVGAPTVDTVLDPAPVLPGGTLTGQVHLEGGQTDFDIEHITLELVARVEAEHEDGEDEGVVVFDRFTVGGGFRLGAEEPRSVPFRVTLPWETPITELYGQPLGIVLGVRTELAVADAKDKGDLDQLTVTALPVQEAVLEAFGQLGFGFGSADLEYGHIGGTGQQLPFYQEIELVPAPQYADRLNEIELTFLAGPGGLEVVLEADKRGGLLSSGHDAVTRFSVGHHDARDWAAEVEGWVRQLVEHHTTYGAPGTHGHSTPYAGHGHHDPHGNGGRHHDDHRSGPGVGTAVAAGAAGLAVGVVGGMVAAEVVDEVGDFFEGDDEEEDEG”, the protein production entry is “not failed”.

These data come from a protein production outcome set (Wang et al. 2014).
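Also: failed if final PepcDB status was selected cloned or expressed and not failed if soluble or beyond.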
